The data set addresses T1, YTH-YPet (UniProt Q9Y5A9 380-579).
T1 sequence: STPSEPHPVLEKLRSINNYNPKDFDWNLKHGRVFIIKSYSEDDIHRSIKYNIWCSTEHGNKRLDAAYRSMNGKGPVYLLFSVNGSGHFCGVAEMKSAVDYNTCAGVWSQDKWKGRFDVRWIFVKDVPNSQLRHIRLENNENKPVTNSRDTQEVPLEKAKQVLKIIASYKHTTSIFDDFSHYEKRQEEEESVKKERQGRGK
Description: EMSA.

B1: aRNA (structured_RNA)
RNA: CCGGACUGUACAUGAGGAUCACCCAUGU
On to B1, for which the binding result is “no binding”.

(Values after PMC11566999.)
